# Laboratory results: PMC4434323
# Assays:
# [1] = biological target: T1, ceh-34 (C10G8.6) (Caenorhabditis elegans) (UniProt Q94165)
# T1 sequence: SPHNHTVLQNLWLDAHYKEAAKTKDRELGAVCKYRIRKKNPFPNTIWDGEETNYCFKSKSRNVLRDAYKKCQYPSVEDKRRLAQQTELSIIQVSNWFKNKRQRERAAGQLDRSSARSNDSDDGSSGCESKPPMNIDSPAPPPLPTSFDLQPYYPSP
# [2] = biological target: T2, med-2 (K04C2.6) (Caenorhabditis elegans) (UniProt G5EF25)
# T2 sequence: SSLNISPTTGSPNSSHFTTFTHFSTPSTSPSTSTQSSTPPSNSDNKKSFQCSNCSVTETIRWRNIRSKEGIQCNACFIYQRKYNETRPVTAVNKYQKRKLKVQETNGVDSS
# [3] = biological target: T3, ceh-90 (R03E1.4) (Caenorhabditis elegans) (UniProt Q69YW8)
# T3 sequence: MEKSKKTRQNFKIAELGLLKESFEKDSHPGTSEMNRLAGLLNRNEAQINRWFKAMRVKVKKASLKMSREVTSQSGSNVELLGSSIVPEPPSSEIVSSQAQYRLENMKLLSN
# [4] = tested on: ceh-53 (C09G12.1) (Caenorhabditis elegans)
# Sequence of ceh-53 (C09G12.1) (Caenorhabditis elegans) (chain, as listed by the source): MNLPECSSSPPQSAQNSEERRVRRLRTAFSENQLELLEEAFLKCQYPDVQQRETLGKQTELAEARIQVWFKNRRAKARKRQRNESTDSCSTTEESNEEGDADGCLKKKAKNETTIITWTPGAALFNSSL
# [5] = biological target: ceh-36 (C37E2.4) (Caenorhabditis elegans) (UniProt Q93352)
# Sequence of ceh-36 (C37E2.4) (Caenorhabditis elegans) (Q93352 6-165): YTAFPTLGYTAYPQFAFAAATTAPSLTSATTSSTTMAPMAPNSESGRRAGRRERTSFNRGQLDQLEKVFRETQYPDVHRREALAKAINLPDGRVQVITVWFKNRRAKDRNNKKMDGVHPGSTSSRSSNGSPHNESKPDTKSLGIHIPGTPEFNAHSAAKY
# [6] = biological target: ceh-37 (C37E2.5) (Caenorhabditis elegans) (UniProt Q93356)
# Sequence of ceh-37 (C37E2.5) (Caenorhabditis elegans) (Q93356 1-148): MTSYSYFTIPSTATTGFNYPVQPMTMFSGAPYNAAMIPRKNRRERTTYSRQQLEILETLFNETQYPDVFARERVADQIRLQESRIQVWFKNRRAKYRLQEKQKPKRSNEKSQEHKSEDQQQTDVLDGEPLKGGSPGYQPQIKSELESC
# [7] = biological target: T4, C07E3.6 (C07E3.6) (Caenorhabditis elegans) (UniProt Q17792)
# T4 sequence: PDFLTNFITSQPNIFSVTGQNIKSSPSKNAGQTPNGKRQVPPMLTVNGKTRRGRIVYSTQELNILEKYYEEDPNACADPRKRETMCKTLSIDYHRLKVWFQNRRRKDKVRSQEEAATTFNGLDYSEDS
# [8] = biological target: T5, end-1 (F58E10.2) (Caenorhabditis elegans) (UniProt G5EDN4)
# T5 sequence: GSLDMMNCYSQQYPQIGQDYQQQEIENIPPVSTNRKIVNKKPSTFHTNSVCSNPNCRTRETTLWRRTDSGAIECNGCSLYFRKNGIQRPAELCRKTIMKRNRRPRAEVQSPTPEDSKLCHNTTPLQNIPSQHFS
# [9] = biological target: dmd-4 (C27C12.6) (Caenorhabditis elegans) (UniProt Q18248)
# Sequence of dmd-4 (C27C12.6) (Caenorhabditis elegans) (Q18248 1-114): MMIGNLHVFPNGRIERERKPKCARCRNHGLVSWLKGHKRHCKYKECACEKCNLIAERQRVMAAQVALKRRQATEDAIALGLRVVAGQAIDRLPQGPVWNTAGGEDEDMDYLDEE
# [10] = biological target: T6, atf-6 (F45E6.2) (Caenorhabditis elegans) (UniProt Q20435)
# T6 sequence: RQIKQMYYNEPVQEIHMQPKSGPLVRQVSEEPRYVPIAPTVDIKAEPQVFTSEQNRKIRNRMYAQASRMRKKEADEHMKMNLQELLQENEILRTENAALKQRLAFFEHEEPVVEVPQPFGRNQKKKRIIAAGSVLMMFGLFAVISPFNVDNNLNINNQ
# [11] = biological target: atf-7 (C07G2.2) (Caenorhabditis elegans) (UniProt Q86MD3)
# Sequence of atf-7 (C07G2.2) (Caenorhabditis elegans) (Q86MD3 339-508): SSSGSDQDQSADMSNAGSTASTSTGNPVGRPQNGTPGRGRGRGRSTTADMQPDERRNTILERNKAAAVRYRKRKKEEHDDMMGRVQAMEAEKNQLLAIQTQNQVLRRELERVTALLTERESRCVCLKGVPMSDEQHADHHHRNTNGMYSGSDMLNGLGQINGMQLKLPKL
# [12] = biological target: T7, C27D6.4 (C27D6.4) (Caenorhabditis elegans) (UniProt Q4JFH9)
# T7 sequence: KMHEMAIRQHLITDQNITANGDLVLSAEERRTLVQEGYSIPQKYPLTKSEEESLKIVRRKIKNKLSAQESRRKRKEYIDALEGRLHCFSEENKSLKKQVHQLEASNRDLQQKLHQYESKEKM
sequence,measurement,setting,value
AGGTATCA (double strand) [8-mer AGGTATCA],binding signal (PBM E-score (-0.5 to 0.5)),[1],0.474
AAGTATAC (double strand) [8-mer AAGTATAC],binding signal (PBM E-score (-0.5 to 0.5)),[2],0.499
GGTTTTTA (double strand) [8-mer GGTTTTTA],binding signal (PBM E-score (-0.5 to 0.5)),[3],0.485
ATGATACC (double strand) [8-mer ATGATACC],binding signal (PBM E-score (-0.5 to 0.5)),[1],0.481
ACTAAAAC (double strand) [8-mer ACTAAAAC],binding signal (PBM E-score (-0.5 to 0.5)),[3],0.487
ACTAATCC (double strand) [8-mer ACTAATCC],binding signal (PBM E-score (-0.5 to 0.5)),[4],0.497
same,binding signal (PBM E-score (-0.5 to 0.5)),[5],0.49
CGGATTAG (double strand) [8-mer CGGATTAG],binding signal (PBM E-score (-0.5 to 0.5)),[4],0.496
GGGGGATA (double strand) [8-mer GGGGGATA],binding signal (PBM E-score (-0.5 to 0.5)),[1],0.463
TAATCCGA (double strand) [8-mer TAATCCGA],binding signal (PBM E-score (-0.5 to 0.5)),[6],0.489
GCGGATTA (double strand) [8-mer GCGGATTA],binding signal (PBM E-score (-0.5 to 0.5)),[4],0.494
same,binding signal (PBM E-score (-0.5 to 0.5)),[5],0.491
same,binding signal (PBM E-score (-0.5 to 0.5)),[6],0.491
CAGTATAC (double strand) [8-mer CAGTATAC],binding signal (PBM E-score (-0.5 to 0.5)),[2],0.498
AGTATACT (double strand) [8-mer AGTATACT],binding signal (PBM E-score (-0.5 to 0.5)),[2],0.5
AGGGTATC (double strand) [8-mer AGGGTATC],binding signal (PBM E-score (-0.5 to 0.5)),[1],0.466
AGGATTAA (double strand) [8-mer AGGATTAA],binding signal (PBM E-score (-0.5 to 0.5)),[4],0.494
same,binding signal (PBM E-score (-0.5 to 0.5)),[5],0.492
same,binding signal (PBM E-score (-0.5 to 0.5)),[6],0.491
GGGTATCA (double strand) [8-mer GGGTATCA],binding signal (PBM E-score (-0.5 to 0.5)),[1],0.49
AGTATACG (double strand) [8-mer AGTATACG],binding signal (PBM E-score (-0.5 to 0.5)),[2],0.496
GTATACTA (double strand) [8-mer GTATACTA],binding signal (PBM E-score (-0.5 to 0.5)),[2],0.499
GGGTATAC (double strand) [8-mer GGGTATAC],binding signal (PBM E-score (-0.5 to 0.5)),[2],0.496
GTATACCA (double strand) [8-mer GTATACCA],binding signal (PBM E-score (-0.5 to 0.5)),[2],0.495
GAGTATCA (double strand) [8-mer GAGTATCA],binding signal (PBM E-score (-0.5 to 0.5)),[1],0.46
GAGTATAC (double strand) [8-mer GAGTATAC],binding signal (PBM E-score (-0.5 to 0.5)),[2],0.499
GCTAATTA (double strand) [8-mer GCTAATTA],binding signal (PBM E-score (-0.5 to 0.5)),[7],0.496
ATGATATC (double strand) [8-mer ATGATATC],binding signal (PBM E-score (-0.5 to 0.5)),[8],0.484
same,binding signal (PBM E-score (-0.5 to 0.5)),[1],0.476
AGGTATAC (double strand) [8-mer AGGTATAC],binding signal (PBM E-score (-0.5 to 0.5)),[2],0.496
ACGGATTA (double strand) [8-mer ACGGATTA],binding signal (PBM E-score (-0.5 to 0.5)),[4],0.494
same,binding signal (PBM E-score (-0.5 to 0.5)),[6],0.487
AATGATAC (double strand) [8-mer AATGATAC],binding signal (PBM E-score (-0.5 to 0.5)),[9],0.482
same,binding signal (PBM E-score (-0.5 to 0.5)),[1],0.461
GGTATACC (double strand) [8-mer GGTATACC],binding signal (PBM E-score (-0.5 to 0.5)),[2],0.496
CTAAAACC (double strand) [8-mer CTAAAACC],binding signal (PBM E-score (-0.5 to 0.5)),[3],0.493
GGATTAAC (double strand) [8-mer GGATTAAC],binding signal (PBM E-score (-0.5 to 0.5)),[4],0.495
same,binding signal (PBM E-score (-0.5 to 0.5)),[5],0.49
same,binding signal (PBM E-score (-0.5 to 0.5)),[6],0.492
GGGGATTA (double strand) [8-mer GGGGATTA],binding signal (PBM E-score (-0.5 to 0.5)),[4],0.497
same,binding signal (PBM E-score (-0.5 to 0.5)),[5],0.495
same,binding signal (PBM E-score (-0.5 to 0.5)),[6],0.494
GATAATCC (double strand) [8-mer GATAATCC],binding signal (PBM E-score (-0.5 to 0.5)),[6],0.491
AGTATACC (double strand) [8-mer AGTATACC],binding signal (PBM E-score (-0.5 to 0.5)),[2],0.499
ATTGATAC (double strand) [8-mer ATTGATAC],binding signal (PBM E-score (-0.5 to 0.5)),[9],0.487
same,binding signal (PBM E-score (-0.5 to 0.5)),[1],0.467
AAGTATCA (double strand) [8-mer AAGTATCA],binding signal (PBM E-score (-0.5 to 0.5)),[1],0.468
CTAATCCC (double strand) [8-mer CTAATCCC],binding signal (PBM E-score (-0.5 to 0.5)),[4],0.496
same,binding signal (PBM E-score (-0.5 to 0.5)),[5],0.49
GGGTTTTA (double strand) [8-mer GGGTTTTA],binding signal (PBM E-score (-0.5 to 0.5)),[3],0.498
AGTTTTAG (double strand) [8-mer AGTTTTAG],binding signal (PBM E-score (-0.5 to 0.5)),[3],0.486
AGGTTTTA (double strand) [8-mer AGGTTTTA],binding signal (PBM E-score (-0.5 to 0.5)),[3],0.496
AAGTTTTA (double strand) [8-mer AAGTTTTA],binding signal (PBM E-score (-0.5 to 0.5)),[3],0.492
GATACCCC (double strand) [8-mer GATACCCC],binding signal (PBM E-score (-0.5 to 0.5)),[1],0.48
AAGGATTA (double strand) [8-mer AAGGATTA],binding signal (PBM E-score (-0.5 to 0.5)),[4],0.495
same,binding signal (PBM E-score (-0.5 to 0.5)),[5],0.492
same,binding signal (PBM E-score (-0.5 to 0.5)),[6],0.493
CGGTATAC (double strand) [8-mer CGGTATAC],binding signal (PBM E-score (-0.5 to 0.5)),[2],0.495
GCTAATCC (double strand) [8-mer GCTAATCC],binding signal (PBM E-score (-0.5 to 0.5)),[4],0.497
same,binding signal (PBM E-score (-0.5 to 0.5)),[5],0.493
same,binding signal (PBM E-score (-0.5 to 0.5)),[6],0.49
AGGGATTA (double strand) [8-mer AGGGATTA],binding signal (PBM E-score (-0.5 to 0.5)),[6],0.487
AGTTTTAA (double strand) [8-mer AGTTTTAA],binding signal (PBM E-score (-0.5 to 0.5)),[3],0.492
GGTATCAC (double strand) [8-mer GGTATCAC],binding signal (PBM E-score (-0.5 to 0.5)),[1],0.476
CTTAAAAC (double strand) [8-mer CTTAAAAC],binding signal (PBM E-score (-0.5 to 0.5)),[3],0.494
CCACGTCA (double strand) [8-mer CCACGTCA],binding signal (PBM E-score (-0.5 to 0.5)),[10],0.488
same,binding signal (PBM E-score (-0.5 to 0.5)),[11],0.496
same,binding signal (PBM E-score (-0.5 to 0.5)),[12],0.496
ATAAAACC (double strand) [8-mer ATAAAACC],binding signal (PBM E-score (-0.5 to 0.5)),[3],0.495
GGGATTAA (double strand) [8-mer GGGATTAA],binding signal (PBM E-score (-0.5 to 0.5)),[4],0.496
same,binding signal (PBM E-score (-0.5 to 0.5)),[5],0.494
same,binding signal (PBM E-score (-0.5 to 0.5)),[6],0.493
TAAAACCA (double strand) [8-mer TAAAACCA],binding signal (PBM E-score (-0.5 to 0.5)),[3],0.488
TAATCCTA (double strand) [8-mer TAATCCTA],binding signal (PBM E-score (-0.5 to 0.5)),[5],0.492
AGGATTAG (double strand) [8-mer AGGATTAG],binding signal (PBM E-score (-0.5 to 0.5)),[4],0.496
same,binding signal (PBM E-score (-0.5 to 0.5)),[5],0.492
GGTTTTAA (double strand) [8-mer GGTTTTAA],binding signal (PBM E-score (-0.5 to 0.5)),[3],0.498
GGATTAAA (double strand) [8-mer GGATTAAA],binding signal (PBM E-score (-0.5 to 0.5)),[5],0.49
same,binding signal (PBM E-score (-0.5 to 0.5)),[6],0.488
ATTAAAAC (double strand) [8-mer ATTAAAAC],binding signal (PBM E-score (-0.5 to 0.5)),[3],0.487
CGGATTAA (double strand) [8-mer CGGATTAA],binding signal (PBM E-score (-0.5 to 0.5)),[4],0.494
same,binding signal (PBM E-score (-0.5 to 0.5)),[5],0.489
same,binding signal (PBM E-score (-0.5 to 0.5)),[6],0.492
AGTAATTA (double strand) [8-mer AGTAATTA],binding signal (PBM E-score (-0.5 to 0.5)),[7],0.494
CTTAATCC (double strand) [8-mer CTTAATCC],binding signal (PBM E-score (-0.5 to 0.5)),[4],0.494
same,binding signal (PBM E-score (-0.5 to 0.5)),[5],0.489
GTTAAAAC (double strand) [8-mer GTTAAAAC],binding signal (PBM E-score (-0.5 to 0.5)),[3],0.492
ATTAATCC (double strand) [8-mer ATTAATCC],binding signal (PBM E-score (-0.5 to 0.5)),[4],0.495
same,binding signal (PBM E-score (-0.5 to 0.5)),[5],0.494
same,binding signal (PBM E-score (-0.5 to 0.5)),[6],0.492
ATATCCCC (double strand) [8-mer ATATCCCC],binding signal (PBM E-score (-0.5 to 0.5)),[1],0.474
AGTATACA (double strand) [8-mer AGTATACA],binding signal (PBM E-score (-0.5 to 0.5)),[2],0.498
AGTATCCA (double strand) [8-mer AGTATCCA],binding signal (PBM E-score (-0.5 to 0.5)),[2],0.495
AAAGTATA (double strand) [8-mer AAAGTATA],binding signal (PBM E-score (-0.5 to 0.5)),[2],0.496
ACGTGGCA (double strand) [8-mer ACGTGGCA],binding signal (PBM E-score (-0.5 to 0.5)),[10],0.477
same,binding signal (PBM E-score (-0.5 to 0.5)),[12],0.499
GATATCCC (double strand) [8-mer GATATCCC],binding signal (PBM E-score (-0.5 to 0.5)),[1],0.466
ATAATCCG (double strand) [8-mer ATAATCCG],binding signal (PBM E-score (-0.5 to 0.5)),[6],0.49
